# B1: AP3R2-1A3-z12-hIgG4 (Fc fusion)
# chain: EVQLVESGGGLVQPGGSLRLSCAASGHFSNLAVNWFRQAPGKERELVAGILWSGGSTFYADSVKGRFTISRGNAENMLYLQMNSLRAEDTAVYYCNTGTNWGQGTLVTVSS
# notes: VHH-Fc (hIgG4) fusion of the humanized VHH; also called W3156-AP3R2-1A3-z12-hIgG4; W3156 antibody; not shown: Fc of human IgG4
# Key:
# [1] = target: Factor VIII; assay: non-specific binding ELISA; antigen coated at 2 ug/mL, antibody at 10 ug/ml
# Method: (§1) Non-specific binding ELISA was performed in 96-well high binding plates (Nunc-Immuno Plate, Thermo Scientific). The plate was coated with various antigens (as listed in the left column of Table 11) at 2 μg/mL overnight at 4° C. After blocking with 2% BSA-PBS, 10 μg/ml antibodies were added to the plate and incubated for 2 hours. […] The HRP signal was detected by adding TMB peroxidase substrate and the reaction was stopped after 12 minutes using 2M HCl. The absorbance at 450 nm was read using a microplate reader (Molecular Device). All incubation steps were performed at room temperature. The plate was washed with PBST (0.05% Tween20-PBS) between steps.
# [2] = target: FGFR.his; assay: as above
# Method: as §1
# [3] = target: CD147.his; assay: as above
# Method: as §1
# [4] = target: CTLA4.his; assay: as above
# Sequence of CTLA4.his (P16410 36-161): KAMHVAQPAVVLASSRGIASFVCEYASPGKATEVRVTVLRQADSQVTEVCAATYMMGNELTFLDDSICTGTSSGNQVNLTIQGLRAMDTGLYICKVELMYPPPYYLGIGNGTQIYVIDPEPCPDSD
# Method: as §1
# [5] = target: T1, W317-hPro1.his; assay: as above
# T1 construct: identity unknown
# Method: as §1
# [6] = target: CD22.his; assay: as above
# Method: as §1
# [7] = target: VEGF.his; assay: as above
# Sequence of VEGF.his (P15692 whole entry): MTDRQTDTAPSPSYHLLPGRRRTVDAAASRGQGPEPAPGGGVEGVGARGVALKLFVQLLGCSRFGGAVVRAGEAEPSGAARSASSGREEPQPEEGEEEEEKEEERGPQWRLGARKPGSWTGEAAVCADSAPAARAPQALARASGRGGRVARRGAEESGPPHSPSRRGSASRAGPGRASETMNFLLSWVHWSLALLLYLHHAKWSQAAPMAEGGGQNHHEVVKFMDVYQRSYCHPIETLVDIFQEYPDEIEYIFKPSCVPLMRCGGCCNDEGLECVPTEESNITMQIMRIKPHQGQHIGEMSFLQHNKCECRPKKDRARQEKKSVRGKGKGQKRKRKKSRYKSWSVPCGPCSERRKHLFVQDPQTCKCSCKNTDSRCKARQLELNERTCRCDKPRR
# Method: as §1
# [8] = target: CD3.his; assay: as above
# Method: as §1
# [9] = target: CD40; assay: as above
# Sequence of CD40 (P25942 21-193): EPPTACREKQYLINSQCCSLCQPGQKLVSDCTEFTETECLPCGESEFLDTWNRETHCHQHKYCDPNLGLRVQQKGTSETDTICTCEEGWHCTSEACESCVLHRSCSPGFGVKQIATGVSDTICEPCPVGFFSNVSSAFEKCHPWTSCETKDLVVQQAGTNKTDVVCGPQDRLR
# Method: as §1
# [10] = target: human serum Albumin (human, UniProt P02768 25-609); assay: as above
# Method: as §1
# [11] = target: T2, his-tagged human PD-L1 (R&D-9049-B7), hPro1.ECD.His (human, UniProt Q9NZQ7 19-238); assay: SPR (ProteOn), antibody captured by anti-human IgG Fc, antigen as analyte, 1:1 model
# T2 construct: extracellular domain; His tag; also called hPro1.ECD.His (human PD-L1 ECD); human PD-L1 ECD protein (R&D-9049-B7)
# T2 sequence (Q9NZQ7 19-238): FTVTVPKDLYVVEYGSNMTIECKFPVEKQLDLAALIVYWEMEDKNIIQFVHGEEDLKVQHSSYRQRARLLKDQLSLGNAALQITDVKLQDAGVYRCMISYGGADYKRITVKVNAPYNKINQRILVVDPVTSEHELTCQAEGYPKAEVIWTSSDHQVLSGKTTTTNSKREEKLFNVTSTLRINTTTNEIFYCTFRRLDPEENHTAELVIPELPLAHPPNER
# Method: (§2) Antibodies binding affinities to his-tagged human PD-L1 (R&D-9049-B7), his-tagged cynomolgus PD-L1 (Sino Biological-90251-C08H) and his-tagged mouse PD-L1 (Sino Biological-50010-M08H) were detected by surface plasmon resonance (SPR) assay using the software ProteOn. Testing antibody was captured on anti-human IgG Fc antibody immobilized GLM chip (Bio-rad). The chip was rotated 90° and washed with running buffer until the baseline is stable. hPro1.ECD.His, cynoPro1.ECD.His and mPro1-ECD-His at different concentrations was injected over the sensor chip at a flow rate of 100 uL/min for an association phase of 120 s, followed by 240-800 s dissociation. The chip was regenerated by 10 mM glycine (pH 1.5) following every dissociation phase.
# (§3) The sensorgrams for reference channel L1 and buffer channel A6 were subtracted from the test sensorgrams. The experimental data were fitted by 1:1 binding model. Molecular weight of 40 kDa was used to calculate the molar concentration of analyte hPro1.ECD.His (R&D), cynoPro1.ECD.His and mPro1-ECD-His.
# [12] = target: T3, his-tagged cynomolgus PD-L1 (Sino Biological-90251-C08H), cynoPro1.ECD.His (cynomolgus, UniProt G7PSE7 19-238); assay: as above
# T3 construct: extracellular domain; His tag; also called cynoPro1.ECD.His (cyno PD-L1 ECD)
# T3 sequence (G7PSE7 entry or part of it C08H C08H): as the sequence (Q9NZQ7 19-238) above, with A33T, A34S, S62N, R68Q, Q82R, F173L, T185A, T192I, H215L counted along it
# Method: as §2, §3
# [13] = target: T4, his-tagged mouse PD-L1 (Sino Biological-50010-M08H), mPro1-ECD-His (mouse, UniProt Q9EP73 19-239); assay: as above
# T4 construct: extracellular domain; His tag; also called mPro1-ECD-His (mouse PD-L1 ECD)
# T4 sequence (Q9EP73 19-239, stated change not applied): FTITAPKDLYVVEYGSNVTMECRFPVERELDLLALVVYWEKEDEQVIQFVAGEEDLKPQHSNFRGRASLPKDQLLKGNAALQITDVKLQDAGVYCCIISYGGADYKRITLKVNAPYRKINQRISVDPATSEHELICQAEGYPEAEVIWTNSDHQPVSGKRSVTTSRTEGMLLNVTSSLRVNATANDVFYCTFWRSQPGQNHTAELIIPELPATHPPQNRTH
# Method: as §2, §3
binder,measurement,setting,value
B1,Absorbance at 450 nm,[1],0.06
same,Absorbance at 450 nm,[2],0.14
same,Absorbance at 450 nm,[3],0.07
same,Absorbance at 450 nm,[4],0.08
same,Absorbance at 450 nm,[5],0.06
same,Absorbance at 450 nm,[6],0.06
same,Absorbance at 450 nm,[7],0.09
same,Absorbance at 450 nm,[8],0.07
same,Absorbance at 450 nm,[9],0.25
same,Absorbance at 450 nm,[10],0.42
same,Kd,[11],0.208 nM
same,koff,[11],0.000385 s⁻¹
same,kon,[11],1.85e+06 M⁻¹ s⁻¹
same,Kd,[12],0.251 nM
same,koff,[12],0.000478 s⁻¹
same,kon,[12],1.91e+06 M⁻¹ s⁻¹
same,Kd,[13],19.4 nM
same,koff,[13],0.0114 s⁻¹
same,kon,[13],589000 M⁻¹ s⁻¹

# Reference: patent US20220403031A1 (WUXI BIOLOGICS IRELAND, published 2022)
